System: target antigen-expressing cell line
Experiment: Jurkat NFAT-GFP assay, coculture with target cell lines expressing the respective target antigen (summary Table 10A)
Assay type: cell-based, human
Set-up: key: The signs +/−, +, 2+ etc. after the name of the cell lines indicate the relative degree of positivity on the Jurkat-NFAT-GFP assay as measured by the % GFP positive cells; +: relative degree of positivity on the Jurkat-NFAT-GFP assay as measured by the % GFP positive cells; 2+: relative degree of positivity on the Jurkat-NFAT-GFP assay as measured by the % GFP positive cells
Details: relative % GFP positive cells; for NFAT-GFP ASSAY Positive Cell lines: HL60: SIR-expressing Jurkat-NFAT-GFP cells cocultured with HL60; for NFAT-GFP ASSAY Positive Cell lines: RAJI: SIR-expressing Jurkat-NFAT-GFP cells cocultured with RAJI
How it was run: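 Positivity is scored when SIR-expressing reporter Jurkat cells show more GFP-positive cells than parental controls after coculture with the antigen-bearing line. Effector-to-target ratio is about 1:2, coculture lasts roughly 4–18 hours, and GFP is quantified by FACS.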

Molecule	NFAT-GFP ASSAY Positive Cell lines: HL60	NFAT-GFP ASSAY Positive Cell lines: RAJI	further results
032216-W04 (protein, Polynucleotide encoding a Synthetic Immune Receptor (SIR)) MALPVTALLLPLALLLHAARPDEIVLTQSPGSLAVSPGERVTMSCKSSQSVFFSSSQKNYLAWYQQIPGQSPRLLIYWASTRESGVPDRFTGSGSGTDFTLTISSVQPEDLAIYYCHQYLSSRTFGQGTKLEIKRLEGKPIPNPLLGLDSTGSGEDLKNVFPPEVAVFEPSKAEIAHTQKATLVCLATGFYPDHVELSWWVNGKEVHSGVCTDPQPLKEQPALNDSRYCLSSRLRVSATFWQNPRNHFRCQVQFYGLSENDEWTQDRAKPVTQIVSAEAWGRADCGITSASYHQGVLSATILYEILLGKATLYAVLVSALVLMAMVKRKDSRGRAKRSGSGATNFSLLKQAGDVEENPGPTSMDWIWRILFLVGAATGAHSFEQVQLQQPGAEVVKPGASVKMSCKASGYTFTSYYIHWIKQTPGQGLEWVGVIYPGNDDISYNQKFQGKATLTADKSSTTAYMQLSSLTSEDSAVYYCAREVRLRYFDVWGQGTTVTVSSTREQKLISEEDGSGIQNPDPAVYQLRDSKSSDKSVCLFTDFDSQTNVSQSKDSDVYITDKCVLDMRSMDFKSNSAVAWSNKSDFACANAFNNSIIPEDTFFPSSDVPCDVKLVEKSFETDTNLNFQNLSVIGFRILLLKVAGFNLLMTLRLWSSRAKRSGSGVKQTLNFDLLKLAGDVESNPGPSRGHMTEYKPTVRLATRDDVPRAVRTLAAAFADYPATRHTVDPDRHIERVTELQELFLTRVGLDIGKVWVADDGAAVAVWTTPESVEAGAVFAEIGPRMAELSGSRLAAQQQMEGLLAPHRPKEPAWFLATVGVSPDHQGKGLGSAVVLPGVEAAERAGVPAFLETSAPRNLPFYERLGFTVTADVEVPEGPRTWCMTRKPGA	HL60 (+), MOLM13	–	–
083116-D03 (protein, Polynucleotide encoding a Synthetic Immune Receptor (SIR)) MALPVTALLLPLALLLHAARPLEGKPIPNPLLGLDSTGSGEDLKNVFPPEVAVFEPSKAEIAHTQKATLVCLATGFYPDHVELSWWVNGKEVHSGVCTDPQPLKEQPALNDSRYCLSSRLRVSATFWQNPRNHFRCQVQFYGLSENDEWTQDRAKPVTQIVSAEAWGRADCGITSASYHQGVLSATILYEILLGKATLYAVLVSALVLMAMVKRKDSRGRAKRSGSGATNFSLLKQAGDVEENPGPTSMALPVTALLLPLALLLHAARPDIQMTQSPATIENTSLSASVGDRVTITCRASQGISSWLTWYQQKPEKAPKSLIYAASSLQSGVPSRFSGSGSGTDFTLTISSLQPEDFATYYCQQYDSYPITFGQGTRLEIKGGGGSGGGGSGGGGSQVQLQQWGAGLLKPSETLSLTCAVYGGSFSAYYWSWIRQPPGKGLEWIGDINHGGGTNYNPSLKSRVTISVDTSKNQFSLKLNSVTAADTAVYYCASLTAYWGQGSLVTVSSTREQKLISEEDLGSGTPFPSLAPPIMLLVDGKQQMVVVCLVLDVAPPGLDSPIWFSAGNGSALDAFTYGPSPATDGTWTNLAHLSLPSEELASWEPLVCHTGPGAEGHSRSTQPMHLSGEASTARTCPQEPLRGTPGGALWLGVLRLLLFKLLLFDLLLTCSCLCDPAGPLPSPATTTRLRALGSHRLHPATETGGREATSSPRPQPRDRRWGDTPPGRKPGSPVRAKRSGSGVKQTLNFDLLKLAGDVESNPGPSRSRGHMTEYKPTVRLATRDDVPRAVRTLAAAFADYPATRHTVDPDRHIERVTELQELFLTRVGLDIGKVWVADDGAAVAVWTTPESVEAGAVFAEIGPRMAELSGSRLAAQQQMEGLLAPHRPKEPAWFLATVGVSPDHQGKGLGSAVVLPGVEAAERAGVPAFLETSAPRNLPFYERLGFTVTADVEVPEGPRTWCMTRKPGA	–	–	NFAT-GFP ASSAY Positive Cell lines: L428 (SIR-expressing Jurkat-NFAT-GFP cells cocultured with L428): L428 (+/−)
090116-F02 (protein, Synthetic Immune Receptor (SIR)) MALPVTALLLPLALLLHAARPLEGKPIPNPLLGLDSTGSGEDLKNVFPPEVAVFEPSKAEIAHTQKATLVCLATGFYPDHVELSWWVNGKEVHSGVCTDPQPLKEQPALNDSRYCLSSRLRVSATFWQNPRNHFRCQVQFYGLSENDEWTQDRAKPVTQIVSAEAWGRADCGITSASYHQGVLSATILYEILLGKATLYAVLVSALVLMAMVKRKDSRGRAKRSGSGATNFSLLKQAGDVEENPGPTSMALPVTALLLPLALLLHAARPDDIVMTQSPDSLTVSLGERTTINCKSSQSVLDSSKNKNSLAWYQQKPGQPPKLLLSWASTRESGIPDRFSGSGSGTDFTLTIDSLQPEDSATYYCQQSAHFPITFGQGTRLEIKGGGGSGGGGSGGGGSQVQLVQSGAEVKKPGASVKVSCKASGYTFTNYGMNWVKQAPGQGLKWMGWINTYTGEPTYADDFKGRVTMTSDTSTSTAYLELHNLRSDDTAVYYCARWSWSDGYYVYFDYWGQGTTVTVSSTREQKLISEEDGSGIQNPDPAVYQLRDSKSSDKSVCLFTDFDSQTNVSQSKDSDVYITDKCVLDMRSMDFKSNSAVAWSNKSDFACANAFNNSIIPEDTFFPSSDVPCDVKLVEKSFETDTNLNFQNLSVIGFRILLLKVAGFNLLMTLRLWSSRAKRSGSGVKQTLNFDLLKLAGDVESNPGPSRGHMTEYKPTVRLATRDDVPRAVRTLAAAFADYPATRHTVDPDRHIERVTELQELFLTRVGLDIGKVWVADDGAAVAVWTTPESVEAGAVFAEIGPRMAELSGSRLAAQQQMEGLLAPHRPKEPAWFLATVGVSPDHQGKGLGSAVVLPGVEAAERAGVPAFLETSAPRNLPFYERLGFTVTADVEVPEGPRTWCMTRKPGA	HL60 (+/−)	–	–
062717-Q04 (protein) MALPVTALLLPLALLLHAARPLEGKPIPNPLLGLDSTGSGEDLKNVFPPEVAVFEPSKAEIAHTQKATLVCLATGFYPDHVELSWWVNGKEVHSGVCTDPQPLKEQPALNDSRYCLSSRLRVSATFWQNPRNHFRCQVQFYGLSENDEWTQDRAKPVTQIVSAEAWGRADCGITSASYHQGVLSATILYEILLGKATLYAVLVSALVLMAMVKRKDSRGRAKRSGSGATNFSLLKQAGDVEENPGPTSMALPVTALLLPLALLLHAARPQSALTQPASASGSPGQSVTISCTGTSSDVGGYNYVSWYQQHPGKAPKLMIYDVSNRPSGVSNRFSGSKSGNTASLTISGLQAEDEADYYCSSYTSSSTLYVFGTGTQLTVLGGGGSGGGGSGGGGSEVQLQQSGPGLVKPSQTLSLTCAISGDSMLSNSDTWNWIRQSPSRGLEWLGRTYHRSTWYDDYASSVRGRVSINVDTSKNQYSLQLNAVTPEDTGVYYCARVRLQDGNSWSDAFDVWGQGTMVTVSSTREQKLISEEDGSGIQNPDPAVYQLRDSKSSDKSVCLFTDFDSQTNVSQSKDSDVYITDKCVLDMRSMDFKSNSAVAWSNKSDFACANAFNNSIIPEDTFFPSSDVPCDVKLVEKSFETDTNLNFQNLSVIGFRILLLKVAGFNLLMTLRLWSSRAKRSGSGVKQTLNFDLLKLAGDVESNPGPSRGHMTEYKPTVRLATRDDVPRAVRTLAAAFADYPATRHTVDPDRHIERVTELQELFLTRVGLDIGKVWVADDGAAVAVWTTPESVEAGAVFAEIGPRMAELSGSRLAAQQQMEGLLAPHRPKEPAWFLATVGVSPDHQGKGLGSAVVLPGVEAAERAGVPAFLETSAPRNLPFYERLGFTVTADVEVPEGPRTWCMTRKPGA	–	RAJI (+)	–
041216-G06 (protein, Polynucleotide encoding a Synthetic Immune Receptor (SIR)) MALPVTALLLPLALLLHAARPDEIVLTQSPGSLAVSPGERVTMSCKSSQSVFFSSSQKNYLAWYQQIPGQSPRLLIYWASTRESGVPDRFTGSGSGTDFTLTISSVQPEDLAIYYCHQYLSSRTFGQGTKLEIKRLEGKPIPNPLLGLDSTGSGEDLKNVFPPEVAVFEPSKAEIAHTQKATLVCLATGFYPDHVELSWWVNGKEVHSGVCTDPQPLKEQPALNDSRYCLSSRLRVSATFWQNPRNHFRCQVQFYGLSENDEWTQDRAKPVTQIVSAEAWGRADCGITSASYHQGVLSATILYEILLGKATLYAVLVSALVLMAMVKRKDSRGRAKRSGSGATNFSLLKQAGDVEENPGPTSMDWIWRILFLVGAATGAHSFEQVQLQQPGAEVVKPGASVKMSCKASGYTFTSYYIHWIKQTPGQGLEWVGVIYPGNDDISYNQKFQGKATLTADKSSTTAYMQLSSLTSEDSAVYYCAREVRLRYFDVWGQGTTVTVSSTREQKLISEEDGSGTPFPSLAPPIMLLVDGKQQMVVVCLVLDVAPPGLDSPIWFSAGNGSALDAFTYGPSPATDGTWTNLAHLSLPSEELASWEPLVCHTGPGAEGHSRSTQPMHLSGEASTARTCPQEPLRGTPGGALWLGVLRLLLFKLLLFDLLLTCSCLCDPAGPLPSPATTTRLRALGSHRLHPATETGGREATSSPRPQPRDRRWGDTPPGRKPGSPVRAKRSGSGVKQTLNFDLLKLAGDVESNPGPSRGHMTEYKPTVRLATRDDVPRAVRTLAAAFADYPATRHTVDPDRHIERVTELQELFLTRVGLDIGKVWVADDGAAVAVWTTPESVEAGAVFAEIGPRMAELSGSRLAAQQQMEGLLAPHRPKEPAWFLATVGVSPDHQGKGLGSAVVLPGVEAAERAGVPAFLETSAPRNLPFYERLGFTVTADVEVPEGPRTWCMTRKPGA	+	RAJI (+/−), HL60	NFAT-GFP ASSAY Positive Cell lines: KG1 (SIR-expressing Jurkat-NFAT-GFP cells cocultured with KG1): KG1 (+/−); NFAT-GFP ASSAY Positive Cell lines: THP1 (SIR-expressing Jurkat-NFAT-GFP cells cocultured with THP1): +/−

— US12269859B2, “Synthetic immune receptors and methods of use thereof” (Angeles Therapeutics, Inc., priority 2016, dated 2025)
